What was measured:
[1] = molecular target: TW1 (DtxR-Geminin coiled-coil-SpyCatcher) (UniProt P0DJL7); assay: mass photometry; TW1, TW2 or assembled TW at a final concentration of 10 nM on the slide; 25 mM HEPES pH 7.4, 200 mM KCl, 5 mM MgCl2, 0.2 mM EDTA
[2] = molecular target: TW2 (TrpR-Geminin coiled-coil-SpyTag-Geminin coiled-coil-MetJ) (UniProt P0A881); assay: as above

stoichiometry N [2] | Substance | stoichiometry N [1]
– | TW1 (DtxR-Geminin coiled-coil-SpyCatcher) (from UniProt P0DJL7 2-121; O75496 110-145) | 2
2 | TW2 (TrpR-Geminin coiled-coil-SpyTag-Geminin coiled-coil-MetJ) (from UniProt P0A881 2-10; O75496 110-145; O75496 110-145; P0A8U6 2-105) | –

— paper PMC13379313
